Measured values taken from paper PMC7866087, “Evaluation of Computationally Designed Peptides against TWEAK, a Cytokine of the Tumour Necrosis Factor Ligand Family” (International Journal of Molecular Sciences, 2021).

Test system: TWEAK-Fn14 signalling pathway, BRV5 cells
Test: Cell-based screening of individual peptides, gene expression microarray in TWEAK-stimulated BRV5 cells
Parameters: species or system human
Conditions: for BIRC2 expression Z-Score / HSP90B1 expression Z-Score / IL6 expression Z-Score / JUN expression Z-Score / MAP4K4 expression Z-Score / MAPK14 expression Z-Score / NFKB2 expression Z-Score / TNFRSF12A expression Z-Score / TRAF2 expression Z-Score: normalized to NARS2
Method in brief: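 Serum-starved BRV5 cells were treated with individual peptides at 450 µM, given once or re-dosed hourly, every two hours or every three hours, with or without TWEAK at 25 ng/mL. RNA was harvested after 6 h, and expression of TWEAK-Fn14 downstream genes plus two housekeeping genes was quantified by Fluidigm EvaGreen qPCR as Ct and delta Ct values.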

[1] = TWEAK control T, BRV5, 6 h, replicate column 3
[2] = TWEAK control T, BRV5, 6 h, replicate column 4
[3] = individual peptides, BRV5 + TWEAK, 450 µM, 6 h, mean of replicate columns
[4] = individual peptides, BRV5 + TWEAK, 450 µM, 6 h, replicate column 1
[5] = individual peptides, BRV5 + TWEAK, 450 µM, 6 h, replicate column 2
[6] = individual peptides, BRV5 + TWEAK, 6 h
[7] = individual peptides, BRV5 + TWEAK, 6 h, listed as T

B1: tumour necrosis factor-like weak inducer of apoptosis (protein, UniProt O43508 94-249, looked up)
Tumor necrosis factor ligand …: SAPKGRKTRARRAIAAHYEVHPRPGQDGAQAGVDGTVSGWEEARINSSSPLRYNRQIGEFIVTRAGLYYLYCQVHFDEGKAVYLKLDLLVDGVLALRCLEEFSATAASSLGPQLRLCQVSGLLALRPGSSLRIRTLPWAHLKAAPFLTYFGLFQVH
[1]
  BIRC2 mRNA expression (normalized to NARS2): 1.027
  HSP90B1 mRNA expression (normalized to NARS2): 3.037
  JUN mRNA expression (normalized to NARS2): 0.03535
  MAP4K4 mRNA expression (normalized to NARS2): 0.2587
  MAPK14 mRNA expression (normalized to NARS2): 0.3748
  NFKB2 mRNA expression (normalized to NARS2): 0.06251
  TNFRSF12A mRNA expression (normalized to NARS2): 0.03969
  TRAF2 mRNA expression (normalized to NARS2): 0.07995
[2]
  BIRC2 mRNA expression (normalized to NARS2): 1.011
  HSP90B1 mRNA expression (normalized to NARS2): 2.84
  JUN mRNA expression (normalized to NARS2): 0.03216
  MAP4K4 mRNA expression (normalized to NARS2): 0.2342
  MAPK14 mRNA expression (normalized to NARS2): 0.332
  NFKB2 mRNA expression (normalized to NARS2): 0.06133
  TNFRSF12A mRNA expression (normalized to NARS2): 0.03763
  TRAF2 mRNA expression (normalized to NARS2): 0.08704
[3]
  BIRC2 mRNA expression (normalized to NARS2): 0.9889
  HSP90B1 mRNA expression (normalized to NARS2): 2.734
  IL6 mRNA expression (normalized to NARS2): 0.00008785
  JUN mRNA expression (normalized to NARS2): 0.02837
  MAP4K4 mRNA expression (normalized to NARS2): 0.2098
  MAPK14 mRNA expression (normalized to NARS2): 0.3339
  NFKB2 mRNA expression (normalized to NARS2): 0.05526
  TNFRSF12A mRNA expression (normalized to NARS2): 0.03637
  TRAF2 mRNA expression (normalized to NARS2): 0.06681
[4]
  BIRC2 mRNA expression (normalized to NARS2): 0.9782
  HSP90B1 mRNA expression (normalized to NARS2): 2.649
  IL6 mRNA expression (normalized to NARS2): 0.0001501
  JUN mRNA expression (normalized to NARS2): 0.02253
  MAP4K4 mRNA expression (normalized to NARS2): 0.1844
  MAPK14 mRNA expression (normalized to NARS2): 0.3328
  NFKB2 mRNA expression (normalized to NARS2): 0.05313
  TNFRSF12A mRNA expression (normalized to NARS2): 0.03435
  TRAF2 mRNA expression (normalized to NARS2): 0.05236
[5]
  BIRC2 mRNA expression (normalized to NARS2): 0.9396
  HSP90B1 mRNA expression (normalized to NARS2): 2.412
  IL6 mRNA expression (normalized to NARS2): 0.00002557
  JUN mRNA expression (normalized to NARS2): 0.02345
  MAP4K4 mRNA expression (normalized to NARS2): 0.162
  MAPK14 mRNA expression (normalized to NARS2): 0.2958
  NFKB2 mRNA expression (normalized to NARS2): 0.04407
  TNFRSF12A mRNA expression (normalized to NARS2): 0.03379
  TRAF2 mRNA expression (normalized to NARS2): 0.04788
[6]
  BIRC2 expression Z-Score: 2.98
  HSP90B1 expression Z-Score: 0.8798
  IL6 expression Z-Score: -1.558
  JUN expression Z-Score: -0.7938
  MAP4K4 expression Z-Score: 0.6195
  MAPK14 expression Z-Score: 2.332
  NFKB2 expression Z-Score: 1.408
  TNFRSF12A expression Z-Score: 1.8
  TRAF2 expression Z-Score: 2.292
[7]
  BIRC2 expression Z-Score: 2.9803
  HSP90B1 expression Z-Score: 0.8798
  IL6 expression Z-Score: -1.5585
  JUN expression Z-Score: -0.7938
  MAP4K4 expression Z-Score: 0.6195
  MAPK14 expression Z-Score: 2.3319
  NFKB2 expression Z-Score: 1.4080
  TNFRSF12A expression Z-Score: 1.8000
  TRAF2 expression Z-Score: 2.2919
